{
  "source": "paper PMC11939966",
  "origin": "cited, not measured here",
  "target": "Tristetraprolin (TTP) (Homo sapiens) (UniProt P26651)",
  "sequence (P26651 whole entry)": "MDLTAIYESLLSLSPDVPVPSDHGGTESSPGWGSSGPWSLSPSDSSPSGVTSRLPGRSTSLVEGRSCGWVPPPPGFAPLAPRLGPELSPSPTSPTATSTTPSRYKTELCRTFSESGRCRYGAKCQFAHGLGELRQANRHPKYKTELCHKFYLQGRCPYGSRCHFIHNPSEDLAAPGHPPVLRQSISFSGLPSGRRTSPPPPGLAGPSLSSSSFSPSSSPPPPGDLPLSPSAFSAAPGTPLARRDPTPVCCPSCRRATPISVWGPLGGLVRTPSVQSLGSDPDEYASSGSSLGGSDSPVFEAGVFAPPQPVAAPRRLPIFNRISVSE",
  "assay": "ITC",
  "note": "pKd: −log10 of the molar value.",
  "data": [
    {"substance": "CNOT1 800-999 (from UniProt A5YKK6)", "values": [
      {"measurement": "pKd", "value": 5.70}
    ]}
  ]
}
